Measured values from patent US10000542 (Novo Nordisk, dated 2018).
Numbered stars: 1 amine (or outer) side, 2 acyl side, 3 side chain; on linkers, the order of the positions; unused ones are H or OH. Square brackets hold non-standard residues; d marks the D form. Side chains are listed from the residue outwards. Ends that are not written are not given here. * marks the point of attachment. Dodecanoyl(12-OPh(4-COOH)) = O=C(O)c1ccc(OCCCCCCCCCCCC(=O)*)cc1; Undecanoyl(11-OPh(4-COOH)) = O=C(O)c1ccc(OCCCCCCCCCCC(=O)*)cc1; γGlu = O=C(O)[C@H](CCC(=O)[*:2])N[*:1]; εLys = N[C@@H](CCCCN[*:1])C(=O)[*:2]; AEEA = NCCOCCOCC(=O)O; Aib = CC(C)(N)C(=O)O

Assays:
human GLP-1 receptor [1] = target: T1, human GLP-1 receptor (human, UniProt P43220 24-463); experiment: cell-based or functional assay
human GLP-1 receptor [2] = target: T1, human GLP-1 receptor; experiment: cell-based or functional assay; remark: listed apart in the source
human GLP-1 receptor [3] = target: T1, human GLP-1 receptor; experiment: SPA displacement of [125I]-GLP-1(7-36)NH2 from BHK membranes with human GLP-1 receptor, high HSA (2.0%)
human GLP-1 receptor [4] = target: T1, human GLP-1 receptor; experiment: SPA displacement of [125I]-GLP-1(7-36)NH2 from BHK membranes with human GLP-1 receptor, low HSA (0.001%)
Protocol: (§1) 50 ul (micro liter) HSA ("high albumin" experiment containing 2% HSA), or buffer ("low albumin" experiment containing 0.001% HSA) was added to Optiplate, and 25 ul of test compounds were added. 5-10 ug membrane protein/sample was added (50 ul) corresponding to 0.1-0.2 mg protein/ml (to be preferably optimised for each membrane preparation). SPA-particles (Wheatgerm agglutinin SPA beads, Perkin Elmer, #RPNQ0001) were added in an amount of 0.5 mg/well (50 ul). […] The plates were sealed with PlateSealer and incubated for 120 minutes at 30° C. while shaking. The plates were centrifuged (1500 rpm, 10 min) and counted in Topcounter.

human GLP-1 receptor [5] = target: T1, human GLP-1 receptor; experiment: SPA displacement of [125I]-GLP-1(7-36)NH2 from BHK membranes with human GLP-1 receptor, high HSA (2.0%); remark: listed apart in the source
Protocol: as §1

[6] = target: human serum albumin (HSA) (human, UniProt P02768 25-609); experiment: cell-based or functional assay
Chain of human serum albumin (HSA) (P02768 25-609 limits assumed): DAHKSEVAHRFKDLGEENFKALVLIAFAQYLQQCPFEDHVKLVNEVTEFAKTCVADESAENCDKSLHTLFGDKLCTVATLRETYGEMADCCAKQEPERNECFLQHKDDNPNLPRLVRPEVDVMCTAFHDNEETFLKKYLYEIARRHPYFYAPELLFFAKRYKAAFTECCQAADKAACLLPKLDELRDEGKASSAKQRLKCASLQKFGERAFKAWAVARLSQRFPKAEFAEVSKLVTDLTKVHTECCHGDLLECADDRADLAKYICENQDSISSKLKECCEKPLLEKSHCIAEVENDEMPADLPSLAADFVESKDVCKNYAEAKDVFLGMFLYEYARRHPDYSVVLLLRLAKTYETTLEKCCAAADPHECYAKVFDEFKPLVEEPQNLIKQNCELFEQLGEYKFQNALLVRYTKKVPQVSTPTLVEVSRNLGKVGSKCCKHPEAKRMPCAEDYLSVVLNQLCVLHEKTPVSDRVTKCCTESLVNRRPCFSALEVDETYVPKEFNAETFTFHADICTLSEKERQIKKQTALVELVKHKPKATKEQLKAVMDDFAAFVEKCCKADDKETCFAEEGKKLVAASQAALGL

human GLP-1 receptor [7] = target: T1, human GLP-1 receptor; experiment: cell-based or functional assay; remark: listed apart in the source

Binder | EC50/pM (0% HSA), In vitro potency (CRE luciferase) (human GLP-1 receptor [1]) [pM] | In vitro potency (Example 44) EC50/pM (human GLP-1 receptor [2]) [pM] | In vitro potency (Example 45) (0% HSA) EC50/pM (human GLP-1 receptor [2]) [pM] | In vitro potency (Example 45) (1% HSA) EC50/pM (human GLP-1 receptor [2]) [pM] | IC50 (human GLP-1 receptor [3]) [nM] | IC50 (human GLP-1 receptor [4]) [nM] | IC50 (human GLP-1 receptor [5]) [nM] | EC50/pM (1% HSA), In vitro potency (CRE luciferase) (human GLP-1 receptor [1]) [pM] | EC50 (ratio 1% HSA/0% HSA), CRE luciferase [6] [ratio] | EC50/pM, In vitro potency (AlphaScreen) (human GLP-1 receptor [7]) [pM]
XXEGTFTSDVSSYLEGQAAKEFIAWLVRGRK (not fully specified; Imp (imidazopropionyl, des-amino histidine) at 7; Aib at 8; Lys 26 and Lys 37 each acylated at the epsilon-amino group with the side chain given in the name (numbering of GLP-1(7-37))) | 7.9 | – | – | – | – | – | – | – | – | –
HXEGTFTSDVSSYLEGQAAKEFIAWLVRGRK (Aib at 8; 26K and 37K acylated: protracting moiety C14 diacid, linker gGlu-2xOEG (numbering of GLP-1(7-37), His = 7), X stands for Aib) [Comparative compound (WO2011/080103) Example 4] | – | 366 | 46 | 92 | 357 | 6.02 | – | – | – | –
XXEGTFTSDVSSYLEGQAAKEFIAWLVRGRK (Imp (imidazopropionyl, des-amino histidine) at 7; Aib at 8; Lys 26 and Lys 37 each acylated at the epsilon-amino group with the side chain given in the name (numbering of GLP-1(7-37))) | 9.4 | – | – | – | – | – | – | – | – | –
H[Aib]EGTFTSDVSSYLEEQAAK([εLys-γGlu-γGlu-Undecanoyl(11-OPh(4-COOH))])EFIEWLVRGRK([εLys-γGlu-γGlu-Undecanoyl(11-OPh(4-COOH))])E (X stands for Aib) | – | – | – | – | – | 0.02 | 123 | – | – | –
H[Aib]EGTFTSDVSSYLEEQAAK([εLys-AEEA-AEEA-γGlu-Undecanoyl(11-OPh(4-COOH))])EFIAWLVRGRK([εLys-AEEA-AEEA-γGlu-Undecanoyl(11-OPh(4-COOH))]) | 5.5 | – | – | – | – | 0.26 | 251 | 70 | – | –
H[Aib]EGTFTSDVSSYLEEQAAK([εLys-γGlu-γGlu-Undecanoyl(11-OPh(4-COOH))])EFIEWLVRGRK([εLys-γGlu-γGlu-Undecanoyl(11-OPh(4-COOH))]) | 1.5 | – | – | – | – | 0.03 | 641 | 391 | 260 | –
HXEGTFTSDVSSYLEGQAAKEFIAHLVQGRK (Aib at 8; Lys 26 and Lys 37 each acylated at the epsilon-amino group with the side chain given in the name (numbering of GLP-1(7-37), His = 7)) [N^ε26-[(2S)-2-amino-6-[[(2S)-2-amino-6-[[(4S)-4-carboxy-4-[11-(4-carboxyphenoxy)undecanoylamino]butanoyl]amino]hexanoyl]amino]hexanoyl], …, listing 1 of 2 here] | 7.2 | – | – | – | – | – | – | – | – | –
HXEGTFTSDVSSYLEGQAAKEFIAWLVQGRK (Aib at 8; Lys 26 and Lys 37 each acylated at the epsilon-amino group with the side chain given in the name (numbering of GLP-1(7-37), His = 7)) | 8.7 | – | – | – | – | 0.64 | 321 | 633 | 72 | 116
H[Aib]EGTFTSDVSSYLEEQAAK([εLys-AEEA-AEEA-γGlu-Dodecanoyl(12-OPh(4-COOH))])EFIAWLVRGRK([εLys-AEEA-AEEA-γGlu-Dodecanoyl(12-OPh(4-COOH))]) | 3.6 | – | – | – | – | – | 484 | 141 | – | 369
HXEGTFTSDVSSYLEGQAAKEFIAHLVQGRK (Aib at 8; Lys 26 and Lys 37 each acylated at the epsilon-amino group with the side chain given in the name (numbering of GLP-1(7-37), His = 7)) [N^ε26-[(2S)-2-amino-6-[[(2S)-2-amino-6-[[(4S)-4-carboxy-4-[10-(4-carboxyphenoxy)decanoylamino]butanoyl]amino]hexanoyl]amino]hexanoyl], …, listing 2 of 2 here] | 11 | – | 11 | 162 | 27 | 1.57 | – | – | – | –
HXEGTFTSDVSSYLEGQAAKEFIAWLVHGRK (Aib at 8; Lys 26 and Lys 37 each acylated at the epsilon-amino group with the side chain given in the name (numbering of GLP-1(7-37), His = 7)) | 7.8 | – | – | – | – | 0.93 | 71 | 80 | 10.3 | 48
